Numbering of substitutions follows the chain as printed.
B1: TOCILIZUMAB-M58 (antibody, IgG2)
heavy: QVQLQESGPGLVRPSQTLSLTCTVSGYSITSDHAWSWVRQPPGRGLEWIGYISYSGITTYNPSLKSRVTMLRDTSKNQFSLRLSSVTAADTAVYYCARSLARTTAMDYWGQGSLVTVSSASTKGPSVFPLAPSSKSTSGGTAALGCLVKDYFPEPVTVSWNSGALTSGVHTFPAVLQSSGLYSLSSVVTVPSSNFGTQTYTCNVDHKPSNTKVDKTVERKSCVECPPCPAPPVAGPSVFLFPPKPKDTLMISRTPEVTCVVVDVSQEDPEVQFNWYVDGVEVHNAKTKPREEQFNSTFRVVSVLTVVHQDWLNGKEYKCKVSNKGLPAPIEKTISKTKGQPREPQVYTLPPSQEEMTKNQVSLTCLVKGFYPSDIAVEWESNGQPENNYKTTPPMLDSDGSFFLYSKLTVDKSRWQEGNVFSCSVMHEALHNHYTQKSLSLSP
light: not shown
notes: IgG2-derived constant region (WT-SKSC with further changes, Gly446 and Lys447 deleted); also called WT-M58/WT-kappa
B2: TOCILIZUMAB-M73 (antibody)
heavy: B1 heavy with N432A
light: not shown
notes: WT-M58 with asparagine 434 (EU) changed to alanine; also called WT-M73/WT-kappa

Target: T1, soluble human FcRn (human, UniProt P55899 24-290; P61769 21-119)
T1 construct: Complex of FcRn and beta 2-microglobulin; the secreted protein lacks them
T1 sequence (P55899 24-290 limits assumed, chain 1 of 2): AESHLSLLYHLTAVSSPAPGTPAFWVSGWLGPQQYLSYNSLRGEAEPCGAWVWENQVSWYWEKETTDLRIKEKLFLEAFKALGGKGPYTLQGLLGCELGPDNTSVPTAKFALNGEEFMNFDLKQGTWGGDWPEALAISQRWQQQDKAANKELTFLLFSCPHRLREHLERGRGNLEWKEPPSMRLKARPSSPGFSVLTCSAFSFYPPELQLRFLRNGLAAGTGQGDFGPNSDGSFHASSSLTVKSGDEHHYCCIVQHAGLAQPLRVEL
T1 sequence (P61769 21-119 limits assumed, chain 2 of 2): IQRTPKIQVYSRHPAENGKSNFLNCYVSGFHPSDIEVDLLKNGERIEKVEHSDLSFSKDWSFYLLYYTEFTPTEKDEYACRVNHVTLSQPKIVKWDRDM
Test: Biacore, human FcRn

Row | Binder | fold binding against TOCILIZUMAB-IgG1
1 | B1 | ~1.4 times
2 | B2 | ~3.8 times
